These results are taken from article PMC3717379 (Biochemistry, 2013).

Where two headings read alike, the source gives them in different places. No end group written: not given here. IANBD = IANBD fluorescent probe (code IAN) attached to the cysteine

One experiment has as its target wildtype SecA (Escherichia coli, UniProt P10408). The experiment is described as follows: Fluorescence anisotropy binding of IAN-labeled signal peptide to wildtype SecA.
In another experiment the target is SecA-506C (Escherichia coli, UniProt P10408, C885S/C887S/C896S/C98S/M506C). The format is binding.
A further experiment addresses SecA-340C (Escherichia coli, UniProt P10408, C885S/C887S/C896S/C98S/T340C). The format is binding.
Another experiment concerns the target SecA-458C (Escherichia coli, UniProt P10408, C885S/C887S/C896S/C98S/S458C). The format is binding.
Experiment [1] addresses SecA (Escherichia coli) (UniProt P10408). As to conditions: cited from earlier work.
Experiment [2] has the same target. The settings on record: cited from earlier work. This is another data set of the same source.
In experiment [3] the target is monocysteine SecA mutant SecA-59C (E. coli) (UniProt P10408). The experiment is described as follows: FRET or BRET.
Experiment [4] deals with monocysteine SecA mutant SecA-402C (E. coli) (UniProt P10408). The experiment is described as follows: FRET or BRET.
Experiment [5] deals with SP22, 22 residue long E. coli alkaline phosphatase signal peptide with cysteine at position 22 (E. coli). The experiment can be described thus: fluorescence polarisation.
The target in experiment [6] is monocysteine SecA mutant SecA-340C (E. coli) (UniProt P10408). The experiment is described as follows: FRET or BRET.
For experiment [7], the target named is monocysteine SecA mutant SecA-458C (E. coli) (UniProt P10408). The experiment is described as follows: FRET or BRET.
The target in experiment [8] is monocysteine SecA mutant SecA-506C (E. coli) (UniProt P10408). The experiment can be described thus: FRET or BRET.
Experiment [9] concerns the target monocysteine SecA mutant SecA-696C (E. coli) (UniProt P10408). The experiment is described as follows: FRET or BRET.
Experiment [10] concerns the target wildtype SecA (Escherichia coli) (E. coli, UniProt P10408 1-901). The experiment can be described thus: fluorescence polarisation.

Take “MCKQSTIALALLPLLYTPVTKARTPEMPVLENRAAQGDITA-NH2 [SP41]”: the equilibrium dissociation constant (Kd) on wildtype SecA worked out at 6.2 ± 0.8 µM; on SecA-506C it was 6.3 ± 1 µM; at SecA-340C, 6.2 ± 4.3 µM; at SecA-458C it was 4.8 ± 0.6 µM.
Regarding MKQSTIALALLPLLFTPVTKAC-NH2 [SP22], the values for the Kd on SecA-506C, on SecA-340C and on SecA-458C were 1.5 ± 0.7 µM, 1.1 ± 0.4 µM and 3 ± 1.7 µM, respectively.
As to SecA (from UniProt P10408), the figures for the dissociation constant Kd with SecA (Escherichia coli) [1] and in the experiment with SecA (Escherichia coli) [2] were 1 nM and 2200 nM, respectively.
In turn, “monocysteine SecA mutant SecA-59C (from UniProt P10408 1-901) (natural protein)” registered an E FRET (AF568-AF647 dye pair) in [3] of 1. Besides, the results for the E FRET (IAE-IAN dye pair) in experiment [3] and in experiment [4] were 0.38 and 0.4, respectively.
Turning to “monocysteine SecA mutant SecA-340C (from UniProt P10408 1-901) (natural protein)”, in experiment [5], the Kd was found to be 1100 nM. In [6], the E FRET (AF488-AF568 dye pair) is 0.78, the E FRET (IAE-IAN dye pair) was 0.12, the E FRET with SP22 (AF488-AF568 dye pair) is 0.64 and the E FRET with SP41 (AF488-AF568 dye pair) is 0.23.
For “monocysteine SecA mutant SecA-402C (from UniProt P10408 1-901) (natural protein)”, in [4], the E FRET (AF488-AF568 dye pair) came to 0.31 and the E FRET (IAE-IAN dye pair) was 0.19.
Turning to “monocysteine SecA mutant SecA-458C (from UniProt P10408 1-901) (natural protein)”, the equilibrium dissociation constant (Kd) in experiment [5] came out at 3000 nM. In [7], this molecule showed an E FRET with SP22 (AF488-AF568 dye pair) of 0.45 and an E FRET with SP41 (AF488-AF568 dye pair) of 0.45.
Turning to “monocysteine SecA mutant SecA-506C (from UniProt P10408 1-901) (natural protein)”, the dissociation constant Kd in experiment [5] is 1500 nM. In experiment [8], this molecule displayed an E FRET with SP22 (AF568-AF647 dye pair) of 0.67 and an E FRET with SP41 (AF568-AF647 dye pair) of 0.69.
With “monocysteine SecA mutant SecA-696C (from UniProt P10408 1-901) (natural protein)”, the Kd in experiment [5] worked out at 2500 nM. In experiment [9], this molecule showed an E FRET (AF488-AF568 dye pair) of 0.23, an E FRET with SP22 (AF568-AF647 dye pair) of 0.42 and an E FRET with SP41 (AF568-AF647 dye pair) of 0.41.

B1: SP22, 22 residue long E. coli alkaline phosphatase signal peptide with cysteine at position 22 (peptide)
chain: MKQSTIALALLPLLFTPVTKAC(IANBD)-NH2
In the case of B1, the dissociation constant Kd in [10] was determined as 1400 ± 200 nM.
